Bridges are numbered along the chain shown (N, C = ends).
Legend:
chicken ovalbumin [1] = biological target: T1, chicken ovalbumin (chicken, UniProt P01012); assay: FP, PBS pH 7.4
T1 chain: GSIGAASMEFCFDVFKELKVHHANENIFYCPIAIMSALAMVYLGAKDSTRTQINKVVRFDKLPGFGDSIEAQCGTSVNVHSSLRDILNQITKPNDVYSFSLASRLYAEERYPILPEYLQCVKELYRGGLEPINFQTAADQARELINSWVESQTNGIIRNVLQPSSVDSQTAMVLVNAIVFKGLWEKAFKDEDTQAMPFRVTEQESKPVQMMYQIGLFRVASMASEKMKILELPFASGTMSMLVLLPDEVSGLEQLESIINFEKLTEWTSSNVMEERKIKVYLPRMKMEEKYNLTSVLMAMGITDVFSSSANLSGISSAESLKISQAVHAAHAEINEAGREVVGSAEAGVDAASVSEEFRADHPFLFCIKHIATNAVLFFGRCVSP

rabbit serum albumin = biological target: T2, rabbit serum albumin (rabbit, UniProt P49065); assay: FP, pH 6.2, no NaCl
T2 chain: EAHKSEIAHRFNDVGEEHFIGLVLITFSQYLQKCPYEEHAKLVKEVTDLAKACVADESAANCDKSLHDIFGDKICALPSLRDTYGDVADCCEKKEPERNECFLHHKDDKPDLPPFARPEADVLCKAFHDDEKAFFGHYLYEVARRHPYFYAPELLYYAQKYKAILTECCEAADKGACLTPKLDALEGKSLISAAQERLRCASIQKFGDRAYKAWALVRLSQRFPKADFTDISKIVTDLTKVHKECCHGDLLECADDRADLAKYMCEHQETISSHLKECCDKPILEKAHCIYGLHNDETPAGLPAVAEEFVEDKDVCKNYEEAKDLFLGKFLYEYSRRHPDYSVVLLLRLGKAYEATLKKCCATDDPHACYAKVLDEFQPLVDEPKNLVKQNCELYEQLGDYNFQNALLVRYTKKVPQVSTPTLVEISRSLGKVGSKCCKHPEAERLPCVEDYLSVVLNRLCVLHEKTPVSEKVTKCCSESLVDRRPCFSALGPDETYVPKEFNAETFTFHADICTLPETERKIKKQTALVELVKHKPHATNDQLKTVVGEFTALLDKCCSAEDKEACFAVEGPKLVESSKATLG

pig serum albumin = biological target: T3, pig serum albumin (pig, UniProt P08835); assay: FP, pH 6.2, no NaCl
T3 chain: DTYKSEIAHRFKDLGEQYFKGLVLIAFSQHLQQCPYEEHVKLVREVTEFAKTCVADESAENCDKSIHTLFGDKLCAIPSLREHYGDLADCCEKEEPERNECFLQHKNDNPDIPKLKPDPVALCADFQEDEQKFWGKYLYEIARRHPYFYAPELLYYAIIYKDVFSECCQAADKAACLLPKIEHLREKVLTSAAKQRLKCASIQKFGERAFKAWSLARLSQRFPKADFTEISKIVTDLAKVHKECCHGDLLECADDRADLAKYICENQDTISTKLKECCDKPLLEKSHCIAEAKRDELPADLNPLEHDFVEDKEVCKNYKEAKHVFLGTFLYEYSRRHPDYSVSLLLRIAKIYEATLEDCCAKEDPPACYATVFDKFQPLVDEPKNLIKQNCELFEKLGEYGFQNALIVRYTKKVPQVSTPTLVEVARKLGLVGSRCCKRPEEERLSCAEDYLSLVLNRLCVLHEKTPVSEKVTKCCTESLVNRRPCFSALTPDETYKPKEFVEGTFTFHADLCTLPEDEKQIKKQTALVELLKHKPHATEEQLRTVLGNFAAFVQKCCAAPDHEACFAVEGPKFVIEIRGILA

chicken ovalbumin [2] = biological target: T1, chicken ovalbumin; assay: FP, pH 6.2, no NaCl

B1: DX-236 (peptide)
chain: Ac-AEGTGDFWFCDRIAWYPQHLCEFLDPEGGGK(fluorescein)-NH2
modifications: disulfide 10-21 (inferred)
In the case of B1, the Kd (chicken ovalbumin [1]) is reported as > 200 µM, the Kd (rabbit serum albumin) is reported as 500 nM and the Kd (pig serum albumin) is reported as 500 nM. For the same binder, the Kd (chicken ovalbumin [2]) was > 200 µM.

Source: patent US7211395 (dated 2007)
